This passage reports Kd results from PMC5618543, “Differences in Sulfotyrosine Binding amongst CXCR1 and CXCR2 Chemokine Ligands” (International Journal of Molecular Sciences, 2017).

One experiment addresses CXCR2 (Homo sapiens) (UniProt P25025). Particulars: cited from earlier work.
The target in the next experiment is CXCR1 (Homo sapiens) (UniProt P25024). The note with it: cited from earlier work.
Another experiment has as its target T1, CXCL8 (Homo sapiens, UniProt P10145).
T1 sequence (P10145 23-99): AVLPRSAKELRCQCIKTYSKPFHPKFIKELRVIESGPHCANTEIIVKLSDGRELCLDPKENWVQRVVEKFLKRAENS
The experiment in a line: 1H-15N HSQC NMR titration ([…] sY, […]N-CXCL8). Format: binding.

Sequence of CXCR1 (Homo sapiens) (P25024 whole entry): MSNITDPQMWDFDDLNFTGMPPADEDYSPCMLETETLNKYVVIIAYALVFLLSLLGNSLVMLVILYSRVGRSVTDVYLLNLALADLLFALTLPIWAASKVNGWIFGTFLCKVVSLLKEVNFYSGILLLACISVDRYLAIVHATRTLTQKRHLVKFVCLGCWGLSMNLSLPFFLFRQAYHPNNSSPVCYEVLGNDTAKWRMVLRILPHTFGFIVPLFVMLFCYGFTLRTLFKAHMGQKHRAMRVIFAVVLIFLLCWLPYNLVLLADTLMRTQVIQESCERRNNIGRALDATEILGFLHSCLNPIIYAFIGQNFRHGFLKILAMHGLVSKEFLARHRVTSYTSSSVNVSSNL
Sequence of CXCR2 (Homo sapiens) (P25025 whole entry): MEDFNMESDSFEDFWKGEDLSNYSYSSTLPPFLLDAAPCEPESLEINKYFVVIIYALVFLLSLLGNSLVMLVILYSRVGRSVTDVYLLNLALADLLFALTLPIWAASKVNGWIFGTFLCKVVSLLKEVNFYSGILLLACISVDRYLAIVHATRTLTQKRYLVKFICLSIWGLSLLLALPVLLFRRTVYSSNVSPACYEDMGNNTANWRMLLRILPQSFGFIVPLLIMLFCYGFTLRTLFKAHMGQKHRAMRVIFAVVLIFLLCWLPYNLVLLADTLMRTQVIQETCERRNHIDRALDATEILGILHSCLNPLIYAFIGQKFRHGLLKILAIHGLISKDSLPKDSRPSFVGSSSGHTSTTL

By Kd is commonly meant a measure of binding affinity in units of concentration. Consider CXCL5 (from UniProt P42830), for which the Kd with CXCR2 (Homo sapiens) is 0.011 µM; with CXCR1 (Homo sapiens), 0.04 µM. For the compound `N[C@@H](Cc1ccc(OS(=O)(=O)O)cc1)C(=O)O` [sY, sulfotyrosine], on CXCL8, the Kd amounted to 35200 ± 1950 µM.
